Measured values reported in US20140294898A1 (published 2014).
Positions of bridges follow the written chain, without caps; N, C: chain ends. Non-standard residues stand in square brackets, D forms with d. NMeNle = CCCC[C@H](NC)C(=O)O; NMeV = CN[C@H](C(=O)O)C(C)C; NMeA = CN[C@@H](C)C(=O)O; dNMeA = CN[C@H](C)C(=O)O; Sar = CNCC(=O)O

B1: Compound No. 11 (peptide)
peptide: {CH2CO}-F[NMeA]NPHA[Sar]WSW[NMeNle][NMeNle]RCG-NH2
modifications: thioether N-14
SMILES: CCCC[C@H]1C(=O)N(C)[C@@H](CCCC)C(=O)N[C@@H](CCCNC(=N)N)C(=O)N[C@H](C(=O)NCC(N)=O)CSCC(=O)N[C@@H](Cc2ccccc2)C(=O)N(C)[C@@H](C)C(=O)N[C@@H](CC(N)=O)C(=O)N2CCC[C@H]2C(=O)N[C@@H](Cc2c[nH]cn2)C(=O)N[C@@H](C)C(=O)N(C)CC(=O)N[C@@H](Cc2c[nH]c3ccccc23)C(=O)N[C@@H](CO)C(=O)N[C@@H](Cc2c[nH]c3ccccc23)C(=O)N1C
B2: Compound No. 41 (peptide)
peptide: {CH2CO}-F[NMeV]NPHL[Sar]WSW[NMeNle][NMeNle]RCG-NH2
modifications: thioether N-14
SMILES: CCCC[C@H]1C(=O)N(C)[C@@H](CCCC)C(=O)N[C@@H](CCCNC(=N)N)C(=O)N[C@H](C(=O)NCC(N)=O)CSCC(=O)N[C@@H](Cc2ccccc2)C(=O)N(C)[C@@H](C(C)C)C(=O)N[C@@H](CC(N)=O)C(=O)N2CCC[C@H]2C(=O)N[C@@H](Cc2c[nH]cn2)C(=O)N[C@@H](CC(C)C)C(=O)N(C)CC(=O)N[C@@H](Cc2c[nH]c3ccccc23)C(=O)N[C@@H](CO)C(=O)N[C@@H](Cc2c[nH]c3ccccc23)C(=O)N1C
B3: Compound No. 17 (peptide)
peptide: {CH2CO}-F[NMeA]NPHL[Sar]WSA[NMeNle][NMeNle]RCG-NH2
modifications: thioether N-14
SMILES: CCCC[C@H]1C(=O)N(C)[C@@H](CCCC)C(=O)N[C@@H](CCCNC(=N)N)C(=O)N[C@H](C(=O)NCC(N)=O)CSCC(=O)N[C@@H](Cc2ccccc2)C(=O)N(C)[C@@H](C)C(=O)N[C@@H](CC(N)=O)C(=O)N2CCC[C@H]2C(=O)N[C@@H](Cc2c[nH]cn2)C(=O)N[C@@H](CC(C)C)C(=O)N(C)CC(=O)N[C@@H](Cc2c[nH]c3ccccc23)C(=O)N[C@@H](CO)C(=O)N[C@@H](C)C(=O)N1C
B4: Compound No. 30 (peptide)
peptide: {CH2CO}-Y[NMeA]NPHL[Sar]WSW[NMeNle][NMeNle]RCG-NH2
modifications: thioether N-14
SMILES: CCCC[C@H]1C(=O)N(C)[C@@H](CCCC)C(=O)N[C@@H](CCCNC(=N)N)C(=O)N[C@H](C(=O)NCC(N)=O)CSCC(=O)N[C@@H](Cc2ccc(O)cc2)C(=O)N(C)[C@@H](C)C(=O)N[C@@H](CC(N)=O)C(=O)N2CCC[C@H]2C(=O)N[C@@H](Cc2c[nH]cn2)C(=O)N[C@@H](CC(C)C)C(=O)N(C)CC(=O)N[C@@H](Cc2c[nH]c3ccccc23)C(=O)N[C@@H](CO)C(=O)N[C@@H](Cc2c[nH]c3ccccc23)C(=O)N1C
B5: Compound No. 25 (peptide)
peptide: {CH2CO}-W[NMeA]NPHL[Sar]WSW[NMeNle][NMeNle]RCG-NH2
modifications: thioether N-14
SMILES: CCCC[C@H]1C(=O)N(C)[C@@H](CCCC)C(=O)N[C@@H](CCCNC(=N)N)C(=O)N[C@H](C(=O)NCC(N)=O)CSCC(=O)N[C@@H](Cc2c[nH]c3ccccc23)C(=O)N(C)[C@@H](C)C(=O)N[C@@H](CC(N)=O)C(=O)N2CCC[C@H]2C(=O)N[C@@H](Cc2c[nH]cn2)C(=O)N[C@@H](CC(C)C)C(=O)N(C)CC(=O)N[C@@H](Cc2c[nH]c3ccccc23)C(=O)N[C@@H](CO)C(=O)N[C@@H](Cc2c[nH]c3ccccc23)C(=O)N1C
B6: Compound No. 16 (peptide)
peptide: {CH2CO}-F[NMeA]NPHL[Sar]WAW[NMeNle][NMeNle]RCG-NH2
modifications: thioether N-14
SMILES: CCCC[C@H]1C(=O)N(C)[C@@H](CCCC)C(=O)N[C@@H](CCCNC(=N)N)C(=O)N[C@H](C(=O)NCC(N)=O)CSCC(=O)N[C@@H](Cc2ccccc2)C(=O)N(C)[C@@H](C)C(=O)N[C@@H](CC(N)=O)C(=O)N2CCC[C@H]2C(=O)N[C@@H](Cc2c[nH]cn2)C(=O)N[C@@H](CC(C)C)C(=O)N(C)CC(=O)N[C@@H](Cc2c[nH]c3ccccc23)C(=O)N[C@@H](C)C(=O)N[C@@H](Cc2c[nH]c3ccccc23)C(=O)N1C
B7: Compound No. 13 (peptide)
peptide: {CH2CO}-F[NMeA]NPHL[NMeA]WSW[NMeNle][NMeNle]RCG-NH2
modifications: thioether N-14
SMILES: CCCC[C@H]1C(=O)N(C)[C@@H](CCCC)C(=O)N[C@@H](CCCNC(=N)N)C(=O)N[C@H](C(=O)NCC(N)=O)CSCC(=O)N[C@@H](Cc2ccccc2)C(=O)N(C)[C@@H](C)C(=O)N[C@@H](CC(N)=O)C(=O)N2CCC[C@H]2C(=O)N[C@@H](Cc2c[nH]cn2)C(=O)N[C@@H](CC(C)C)C(=O)N(C)[C@@H](C)C(=O)N[C@@H](Cc2c[nH]c3ccccc23)C(=O)N[C@@H](CO)C(=O)N[C@@H](Cc2c[nH]c3ccccc23)C(=O)N1C
B8: Compound No. 22 (peptide)
peptide: {CH2CO}-F[NMeA]NPHL[Sar]WSW[NMeNle][NMeNle]ACG-NH2
modifications: thioether N-14
SMILES: CCCC[C@H]1C(=O)N(C)[C@@H](CCCC)C(=O)N[C@@H](C)C(=O)N[C@H](C(=O)NCC(N)=O)CSCC(=O)N[C@@H](Cc2ccccc2)C(=O)N(C)[C@@H](C)C(=O)N[C@@H](CC(N)=O)C(=O)N2CCC[C@H]2C(=O)N[C@@H](Cc2c[nH]cn2)C(=O)N[C@@H](CC(C)C)C(=O)N(C)CC(=O)N[C@@H](Cc2c[nH]c3ccccc23)C(=O)N[C@@H](CO)C(=O)N[C@@H](Cc2c[nH]c3ccccc23)C(=O)N1C
B9: Compound No. 14 (peptide)
peptide: {CH2CO}-F[NMeA]NPHL[dNMeA]WSW[NMeNle][NMeNle]RCG-NH2
modifications: thioether N-14
SMILES: CCCC[C@H]1C(=O)N(C)[C@@H](CCCC)C(=O)N[C@@H](CCCNC(=N)N)C(=O)N[C@H](C(=O)NCC(N)=O)CSCC(=O)N[C@@H](Cc2ccccc2)C(=O)N(C)[C@@H](C)C(=O)N[C@@H](CC(N)=O)C(=O)N2CCC[C@H]2C(=O)N[C@@H](Cc2c[nH]cn2)C(=O)N[C@@H](CC(C)C)C(=O)N(C)[C@H](C)C(=O)N[C@@H](Cc2c[nH]c3ccccc23)C(=O)N[C@@H](CO)C(=O)N[C@@H](Cc2c[nH]c3ccccc23)C(=O)N1C
B10: Compound No. 43 (peptide)
peptide: {CH2CO}-F[NMeA]GPHL[Sar]WSW[NMeNle][NMeNle]RCG-NH2
modifications: thioether N-14
SMILES: CCCC[C@H]1C(=O)N(C)[C@@H](CCCC)C(=O)N[C@@H](CCCNC(=N)N)C(=O)N[C@H](C(=O)NCC(N)=O)CSCC(=O)N[C@@H](Cc2ccccc2)C(=O)N(C)[C@@H](C)C(=O)NCC(=O)N2CCC[C@H]2C(=O)N[C@@H](Cc2c[nH]cn2)C(=O)N[C@@H](CC(C)C)C(=O)N(C)CC(=O)N[C@@H](Cc2c[nH]c3ccccc23)C(=O)N[C@@H](CO)C(=O)N[C@@H](Cc2c[nH]c3ccccc23)C(=O)N1C

Target: T1, hPDL1(19-239)-TVMV-His (human, UniProt Q9NZQ7 19-239)
T1 construct: The text says amino acids 18-239, the construct name says 19-239; Expressed in HEK293T cells; Used at 10 nM final in the HTRF assay; also called PD-L1-His; PD-L1-TVMV-His
Assay: HTRF competition, PD-1-Ig binding to PD-L1-His
Procedure: All binding studies were performed in an HTRF assay buffer consisting of dPBS supplemented with 0.1% (w/v) bovine serum albumin and 0.05% (v/v) Tween-20. […] PD-L1 fusion proteins from either human, cynomologous macaques, or mouse were used. HTRF detection was achieved using europium crypate-labeled anti-Ig monoclonal antibody (1 nM final) and allophycocyanin (APC) labeled anti-His monoclonal antibody (20 nM final). Antibodies were diluted in HTRF detection buffer and 5 μl was dispensed on top of binding reaction. The reaction was allowed to equilibrate for 30 minutes and signal (665 nm/620 nm ratio) was obtained using an EnVision fluorometer. […]
HTRF Experiments were performed essentially as outlined supra. Variant macrocyclic peptides were created as outlined herein.

T1 sequence (Q9NZQ7 other isoform, or with tags, fused parts or gaps limits assumed): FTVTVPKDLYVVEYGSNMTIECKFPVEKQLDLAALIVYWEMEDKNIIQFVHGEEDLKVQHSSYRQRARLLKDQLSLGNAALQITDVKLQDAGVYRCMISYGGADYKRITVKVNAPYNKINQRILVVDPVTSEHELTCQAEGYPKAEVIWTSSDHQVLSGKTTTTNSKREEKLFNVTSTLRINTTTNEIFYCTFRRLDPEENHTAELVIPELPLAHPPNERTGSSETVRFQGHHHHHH

| Binder | IC50 [nM] |
| --- | --- |
| B1 | 31 |
| B2 | 921 |
| B3 | 7540 |
| B4 | 5 |
| B5 | 27 |
| B6 | 5 |
| B7 | 16 |
| B8 | 3 |
| B9 | 59 |
| B10 | 554 |
